System: O=C1O[C@H]([C@@H](O)CO)C(=O)C1=O
Assay: purified protein
Details: 1 mM GSH fixed, DHA 0-0.25 mM (Figure 3 legend: 0-2.5 mM), potassium phosphate, pH 7.5, 25 °C

rGSTO2 (Fasciola hepatica)
Km: 287 µM

From paper PMC8939299, “Molecular characterization of a novel GSTO2 of Fasciola hepatica and its roles in modulating murine macrophages” (Parasite, 2022)
